{"source": "patent EP0910659B1", "about": "“ANTIBODIES AGAINST A COMPLEX OF CD4 AND A CHEMOKINE RECEPTOR DOMAIN, AND THEIR USE AGAINST HIV INFECTIONS” (United Biomedical, Inc., priority 1996, dated 1997)", "key": {"[1]": {"target": "recombinant soluble CD4 (rsCD4) (human)", "assay": "direct ELISA, rsCD4 wells pretreated with p1624a; B4-HRP 50 µg/mL, PBS instead of competitor"}, "[2]": {"target": "CD4 on the surface of CD4-expressing cells (host cell antigen complex comprising CD4) (human)", "assay": "HPB-ALL cells pre-incubated with MAb 50 µg/mL, then gp120-FITC (competitor)"}, "[3]": {"target": "rsCD4 preincubated with CC-CKR3 domain 4 peptide p2082a (human) (UniProt P51677)", "assay": "ELISA, rsCD4 0.25 µg/mL preincubated with peptide, B4 0.1 µg/mL; against rsCD4 alone"}, "[4]": {"target": "rsCD4 preincubated with CC-CKR2b domain 2 peptide p2087a (human) (UniProt P41597)", "assay": "ELISA, rsCD4 0.25 µg/mL preincubated with peptide, B4 0.1 µg/mL; against rsCD4 alone"}, "[5]": {"target": "rsCD4 preincubated with CC-CKR5 domain 3 peptide p2047a (human) (UniProt P51681)", "sequence (P51681 168-199, form in doubt)": "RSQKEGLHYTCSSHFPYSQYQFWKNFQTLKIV", "assay": "ELISA, rsCD4 0.25 µg/mL preincubated with peptide, B4 0.1 µg/mL; against rsCD4 alone"}, "[6]": {"target": "rsCD4 preincubated with CC-CKR2b domain 3 peptide p2088a (human) (UniProt P41597)", "sequence (P41597 182-207, form in doubt)": "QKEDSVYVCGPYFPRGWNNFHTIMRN", "assay": "ELISA, rsCD4 0.25 µg/mL preincubated with peptide, B4 0.1 µg/mL; against rsCD4 alone"}, "[7]": {"target": "rsCD4 preincubated with CC-CKR5 domain 3 peptide p2047a (human) (UniProt P51681)", "assay": "ratio of the rsCD4 IC50 values of the two ELISA inhibition assays"}, "[8]": {"target": "CD4 on the surface of CD4-expressing cells (host cell antigen complex comprising CD4) (human)", "assay": "SUP-T cells, biotinylated B4, no competitor"}, "[9]": {"target": "rsCD4 preincubated with CC-CKR5 domain 3 peptide p2047a (human) (UniProt P51681)", "assay": "ELISA, rsCD4/CC-CKR5-D3 coated wells"}, "[10]": {"target": "CD4 on the surface of CD4-expressing cells (host cell antigen complex comprising CD4) (human)", "assay": "HPB-ALL cells pre-incubated with MAb 10 µg/mL; competitor biotinylated B4"}, "[11]": {"target": "recombinant soluble CD4 (rsCD4) (human)", "assay": "competition ELISA, rsCD4 wells pretreated with p1624a; MAb 50 µg/mL; competitor B4-HRP 50 µg/mL"}, "[12]": {"target": "recombinant soluble CD4 (rsCD4) (human)", "assay": "rsCD4 ELISA, purified B4 2 µg/mL, no competitor"}, "[13]": {"target": "CD4 on the surface of CD4-expressing cells (host cell antigen complex comprising CD4) (human)", "assay": "HPB-ALL cells, biotinylated B4 0.71 µg/mL, no competitor"}, "[14]": {"target": "CD4 on the surface of CD4-expressing cells (host cell antigen complex comprising CD4) (human)", "assay": "HPB-ALL cells, biotinylated B4 1:1000 + FITC-avidin, no competitor"}, "[15]": {"target": "CD4 on the surface of CD4-expressing cells (host cell antigen complex comprising CD4) (human)", "assay": "indirect immunofluorescence, HPB-ALL cells pre-incubated with gp120 (competitor)"}, "[16]": {"target": "recombinant soluble CD4 (rsCD4) (human)", "assay": "rsCD4 ELISA"}, "[17]": {"target": "recombinant soluble CD4 (rsCD4) (human)", "assay": "ELISA, rsCD4-coated wells"}, "[18]": {"target": "CD4 on the surface of CD4-expressing cells (host cell antigen complex comprising CD4) (human)", "assay": "cell-based or functional assay"}, "[19]": {"target": "CD4 on the surface of CD4-expressing cells (host cell antigen complex comprising CD4) (human)", "assay": "indirect immunofluorescence, HPB-ALL cells"}}, "data": [{"substance": "monoclonal antibody B4", "values": [{"measurement": "A492 nm", "setting": "[1]", "result": 1.66, "unit": "A492"}, {"measurement": "% of cells stained by gp120-FITC after prior binding with MAb", "setting": "[2]", "result": 0, "unit": "%"}, {"measurement": "degree of enhancement of MAb B4-rsCD4 binding (grade 0 to 8)", "setting": "[3]", "result": "8 +"}, {"measurement": "degree of enhancement of MAb B4-rsCD4 binding (grade 0 to 8)", "setting": "[4]", "result": "> 4 +"}, {"measurement": "degree of enhancement of MAb B4-rsCD4 binding (grade 0 to 8)", "setting": "[5]", "result": "5 +"}, {"measurement": "degree of enhancement of MAb B4-rsCD4 binding (grade 0 to 8)", "setting": "[6]", "result": "> 4 +"}, {"measurement": "fold improvement of affinity over MAb B4 for rsCD4 alone", "setting": "[7]", "result": 15, "unit": "fold"}, {"measurement": "positive rate", "setting": "[8]", "result": 95, "unit": "%"}, {"measurement": "endpoint binding concentration (OD492nm reading of 1.0)", "setting": "[9]", "result": 0.1, "unit": "µg/mL"}, {"measurement": "% Positive cells (biotinylated B4 staining)", "setting": "[10]", "result": 0, "unit": "%"}, {"measurement": "Intensity of staining (biotinylated B4)", "setting": "[10]", "result": 0}, {"measurement": "% Inhibition", "setting": "[11]", "result": 80, "unit": "%"}, {"measurement": "A492 nm (B4-HRP signal)", "setting": "[11]", "result": 0.338, "unit": "A492"}, {"measurement": "A492 nm", "setting": "[12]", "result": 0.679, "unit": "A492"}, {"measurement": "% Positive cells", "setting": "[13]", "result": "> 95", "unit": "%"}, {"measurement": "% Positive cells", "setting": "[14]", "result": "> 95", "unit": "%"}, {"measurement": "Intensity of staining", "setting": "[14]", "result": 2}, {"measurement": "% of cells reactive after prior binding of gp120", "setting": "[15]", "result": "> 90", "unit": "%"}, {"measurement": "A492 nm reactivity to rsCD4", "setting": "[16]", "result": 1.42, "unit": "A492"}, {"measurement": "endpoint binding concentration (OD492nm reading of 1.0)", "setting": "[17]", "result": 2, "unit": "µg/mL"}, {"measurement": "50% Inhbt., HIV-1 primary isolate 23135, MT-2 Microplaque Neutralization Assay", "setting": "[18]", "result": 0.21, "unit": "µg/mL"}, {"measurement": "50% Inhbt., HIV-1 primary isolate BR014, MT-2 Microplaque Neutralization Assay", "setting": "[18]", "result": 0.19, "unit": "µg/mL"}, {"measurement": "50% end point for neutralization of HIV-1 primary isolate (23135)", "setting": "[18]", "result": 0.21, "unit": "µg/mL"}, {"measurement": "90% Inhbt., HIV-1 primary isolate 23135, MT-2 Microplaque Neutralization Assay", "setting": "[18]", "result": 1.54, "unit": "µg/mL"}, {"measurement": "90% Inhbt., HIV-1 primary isolate BR014, MT-2 Microplaque Neutralization Assay", "setting": "[18]", "result": 1.63, "unit": "µg/mL"}, {"measurement": "HIV-1 DH-12 (chimp PBL-grown), PBMC Infection Reduction Assay", "setting": "[18]", "result": 3, "unit": "logs killed"}, {"measurement": "HIV-1 DH-12, 50% Inhib, MT-2 Microplaque Assay", "setting": "[18]", "result": 0.33, "unit": "µg/mL"}, {"measurement": "HIV-1 DH-12, 90% Inhib, MT-2 Microplaque Assay", "setting": "[18]", "result": 2.1, "unit": "µg/mL"}, {"measurement": "HIV-2 287, PBMC Infectivity Reduction Assay with MAb B4 at 10 µg/mL", "setting": "[18]", "result": 1.5, "unit": "logs killed"}, {"measurement": "HIV-2 ROD, 50%, MT2 Microplaque Neutralization Assay", "setting": "[18]", "result": 0.7, "unit": "µg/mL"}, {"measurement": "HIV-2 ROD, 90%, MT2 Microplaque Neutralization Assay", "setting": "[18]", "result": 8.5, "unit": "µg/mL"}, {"measurement": "SHIV 89.6, 50%, p27 Antigen Neutralization Assay", "setting": "[18]", "result": 0.088, "unit": "µg/mL"}, {"measurement": "SHIV IIIB, 50%, p27 Antigen Neutralization Assay", "setting": "[18]", "result": 0.679, "unit": "µg/mL"}, {"measurement": "SIV239, 50%, p27 Antigen Neutralization Assay", "setting": "[18]", "result": 1.3, "unit": "µg/mL"}, {"measurement": "SIV251 (huPBMC), 80%, p27 Antigen Neutralization Assay", "setting": "[18]", "result": 1, "unit": "µg/mL"}, {"measurement": "SIV251, 50%, p27 Antigen Neutralization Assay", "setting": "[18]", "result": 2, "unit": "µg/mL"}, {"measurement": "% of HPB-ALL cells reactive", "setting": "[19]", "result": "> 90", "unit": "%"}]}]}
